Source: the supplement of paper PMC10065799, “High-throughput profiling of sequence recognition by tyrosine kinases and SH2 domains using bacterial peptide display” (eLife, 2023)

Key:
SHP2-C SH2 = assay: SH2 binding enrichment of the phosphorylated peptide, bacterial display (enrichment ratio); higher = better substrate or ligand; peptides without Tyr show the background
c-Src SH2 = assay: as above
Grb2 SH2 = Grb2 SH2 (UniProt P62993); assay: as above
Fyn = Fyn (UniProt P06241); assay: phosphorylation enrichment, bacterial display (enrichment ratio); higher = better substrate or ligand; peptides without Tyr show the background
FGFR3 = FGFR3 (UniProt P22607); assay: as above
c-Abl (mouse) = assay: as above
EPHB1 = EPHB1 (UniProt P54762); assay: as above
Jak2 = Jak2 (UniProt O60674); assay: as above
Hck = Hck (UniProt P08631); assay: as above
EPHB2 = EPHB2 (UniProt P29323); assay: as above
c-Src = assay: as above
Fer (mouse) = assay: as above
AncSZ = assay: as above
MERTK = MERTK (UniProt Q12866); assay: as above
Fes = Fes (UniProt P07332); assay: as above
FGFR1 = FGFR1 (UniProt P11362); assay: as above
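Wherever SH2 binding enrichment of the phosphorylated peptide, bacterial display is given: peptide library displayed on the E. coli surface as eCPX fusions, selected cells deep-sequenced, score is each peptide's frequency after selection divided by its frequency in the input.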
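Wherever phosphorylation enrichment, bacterial display is given: 11-residue human phosphosite peptides and single-mutation variants displayed on the E. coli surface, counted by deep sequencing, each peptide's frequency after selection divided by its frequency in the unselected input library; frequency after pTyr selection over input frequency; kinase dosed for 20-30% of maximal phosphorylation in three min.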

Chain of Fyn (P06241 whole entry, looked up): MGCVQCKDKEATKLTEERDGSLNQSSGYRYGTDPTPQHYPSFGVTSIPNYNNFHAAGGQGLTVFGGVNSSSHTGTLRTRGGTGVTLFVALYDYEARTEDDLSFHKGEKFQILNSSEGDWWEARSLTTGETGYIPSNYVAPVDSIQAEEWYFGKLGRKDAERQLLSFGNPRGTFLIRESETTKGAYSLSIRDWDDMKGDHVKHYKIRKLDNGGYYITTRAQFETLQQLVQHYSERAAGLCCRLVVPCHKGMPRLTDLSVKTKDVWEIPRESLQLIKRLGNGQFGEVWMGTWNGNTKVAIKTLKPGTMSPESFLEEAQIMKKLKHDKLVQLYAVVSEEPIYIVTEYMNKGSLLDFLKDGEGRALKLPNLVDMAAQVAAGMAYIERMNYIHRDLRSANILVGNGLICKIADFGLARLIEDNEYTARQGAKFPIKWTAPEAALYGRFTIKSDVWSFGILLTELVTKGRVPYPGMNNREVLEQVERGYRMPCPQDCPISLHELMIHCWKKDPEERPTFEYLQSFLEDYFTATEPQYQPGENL
Chain of MERTK (Q12866 whole entry, looked up): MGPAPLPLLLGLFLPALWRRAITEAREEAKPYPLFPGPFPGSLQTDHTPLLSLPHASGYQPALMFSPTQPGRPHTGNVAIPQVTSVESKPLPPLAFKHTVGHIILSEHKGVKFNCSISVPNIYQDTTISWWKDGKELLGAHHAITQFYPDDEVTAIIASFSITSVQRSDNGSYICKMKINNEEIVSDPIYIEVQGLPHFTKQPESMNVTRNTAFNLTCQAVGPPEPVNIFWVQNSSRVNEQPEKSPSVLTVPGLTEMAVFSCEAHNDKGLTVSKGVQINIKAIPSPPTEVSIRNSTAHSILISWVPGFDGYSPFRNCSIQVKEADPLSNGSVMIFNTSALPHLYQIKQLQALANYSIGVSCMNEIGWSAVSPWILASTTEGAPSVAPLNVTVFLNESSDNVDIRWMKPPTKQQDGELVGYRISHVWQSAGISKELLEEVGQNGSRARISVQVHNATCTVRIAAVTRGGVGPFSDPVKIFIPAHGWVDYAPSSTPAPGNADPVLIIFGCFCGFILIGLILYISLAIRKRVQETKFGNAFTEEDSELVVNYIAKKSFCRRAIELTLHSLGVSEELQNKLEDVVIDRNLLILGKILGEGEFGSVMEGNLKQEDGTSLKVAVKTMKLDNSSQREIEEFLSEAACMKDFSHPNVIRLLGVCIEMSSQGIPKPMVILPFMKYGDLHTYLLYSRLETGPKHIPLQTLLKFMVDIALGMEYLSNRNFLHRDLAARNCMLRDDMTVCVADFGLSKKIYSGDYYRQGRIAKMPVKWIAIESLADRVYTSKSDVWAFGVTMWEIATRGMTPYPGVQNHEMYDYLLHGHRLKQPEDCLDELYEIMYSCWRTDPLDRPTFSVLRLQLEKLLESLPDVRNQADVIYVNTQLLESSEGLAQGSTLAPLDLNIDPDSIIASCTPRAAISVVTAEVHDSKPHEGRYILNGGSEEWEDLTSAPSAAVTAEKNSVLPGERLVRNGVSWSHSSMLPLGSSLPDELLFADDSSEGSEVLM
Chain of EPHB1 (P54762 whole entry, looked up): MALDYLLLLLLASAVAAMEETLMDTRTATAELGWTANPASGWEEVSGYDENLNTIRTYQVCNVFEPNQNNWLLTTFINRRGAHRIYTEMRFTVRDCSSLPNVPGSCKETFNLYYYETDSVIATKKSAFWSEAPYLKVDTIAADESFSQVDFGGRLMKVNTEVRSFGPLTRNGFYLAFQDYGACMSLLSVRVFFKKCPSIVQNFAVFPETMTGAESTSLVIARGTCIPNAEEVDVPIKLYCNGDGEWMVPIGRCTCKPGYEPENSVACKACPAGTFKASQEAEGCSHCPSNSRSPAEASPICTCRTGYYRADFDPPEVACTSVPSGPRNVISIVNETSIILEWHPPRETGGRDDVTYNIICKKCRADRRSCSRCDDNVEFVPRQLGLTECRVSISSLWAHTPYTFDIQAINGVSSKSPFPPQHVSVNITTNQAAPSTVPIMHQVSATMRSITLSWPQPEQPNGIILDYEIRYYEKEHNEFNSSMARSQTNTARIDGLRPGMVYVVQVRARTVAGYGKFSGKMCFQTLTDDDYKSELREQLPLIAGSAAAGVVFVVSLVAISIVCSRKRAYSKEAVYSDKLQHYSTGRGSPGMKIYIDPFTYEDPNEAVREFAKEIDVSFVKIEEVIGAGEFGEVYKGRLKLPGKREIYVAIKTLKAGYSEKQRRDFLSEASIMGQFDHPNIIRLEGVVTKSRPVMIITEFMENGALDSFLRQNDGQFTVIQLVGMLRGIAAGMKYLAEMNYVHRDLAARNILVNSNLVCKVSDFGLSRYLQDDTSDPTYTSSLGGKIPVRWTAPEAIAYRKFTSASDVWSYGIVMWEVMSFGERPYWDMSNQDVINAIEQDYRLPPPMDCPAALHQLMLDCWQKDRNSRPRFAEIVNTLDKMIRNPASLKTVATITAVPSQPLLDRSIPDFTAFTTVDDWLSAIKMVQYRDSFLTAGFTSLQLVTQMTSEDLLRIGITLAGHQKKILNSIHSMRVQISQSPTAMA
Chain of FGFR3 (P22607 whole entry, looked up): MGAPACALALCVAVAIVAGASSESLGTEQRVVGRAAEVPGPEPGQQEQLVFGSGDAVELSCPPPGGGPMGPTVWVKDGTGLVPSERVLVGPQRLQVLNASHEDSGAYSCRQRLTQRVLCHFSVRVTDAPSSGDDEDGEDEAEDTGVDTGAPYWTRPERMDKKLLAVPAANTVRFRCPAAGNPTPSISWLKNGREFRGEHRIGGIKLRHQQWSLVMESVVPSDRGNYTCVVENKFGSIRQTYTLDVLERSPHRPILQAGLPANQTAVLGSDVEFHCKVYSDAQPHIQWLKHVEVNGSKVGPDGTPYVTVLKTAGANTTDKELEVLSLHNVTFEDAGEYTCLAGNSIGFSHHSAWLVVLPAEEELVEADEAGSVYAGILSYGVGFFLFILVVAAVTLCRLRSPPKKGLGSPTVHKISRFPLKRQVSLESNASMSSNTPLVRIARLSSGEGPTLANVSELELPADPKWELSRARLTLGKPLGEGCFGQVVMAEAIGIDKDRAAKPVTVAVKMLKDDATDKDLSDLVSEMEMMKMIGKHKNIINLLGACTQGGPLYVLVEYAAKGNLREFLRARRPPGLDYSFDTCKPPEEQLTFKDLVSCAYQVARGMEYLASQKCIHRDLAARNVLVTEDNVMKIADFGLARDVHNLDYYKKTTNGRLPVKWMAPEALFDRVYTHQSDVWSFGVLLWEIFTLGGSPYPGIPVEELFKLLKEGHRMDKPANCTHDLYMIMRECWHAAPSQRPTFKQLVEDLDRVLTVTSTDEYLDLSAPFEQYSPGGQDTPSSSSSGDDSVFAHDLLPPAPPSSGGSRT
Chain of Jak2 (O60674 whole entry, looked up): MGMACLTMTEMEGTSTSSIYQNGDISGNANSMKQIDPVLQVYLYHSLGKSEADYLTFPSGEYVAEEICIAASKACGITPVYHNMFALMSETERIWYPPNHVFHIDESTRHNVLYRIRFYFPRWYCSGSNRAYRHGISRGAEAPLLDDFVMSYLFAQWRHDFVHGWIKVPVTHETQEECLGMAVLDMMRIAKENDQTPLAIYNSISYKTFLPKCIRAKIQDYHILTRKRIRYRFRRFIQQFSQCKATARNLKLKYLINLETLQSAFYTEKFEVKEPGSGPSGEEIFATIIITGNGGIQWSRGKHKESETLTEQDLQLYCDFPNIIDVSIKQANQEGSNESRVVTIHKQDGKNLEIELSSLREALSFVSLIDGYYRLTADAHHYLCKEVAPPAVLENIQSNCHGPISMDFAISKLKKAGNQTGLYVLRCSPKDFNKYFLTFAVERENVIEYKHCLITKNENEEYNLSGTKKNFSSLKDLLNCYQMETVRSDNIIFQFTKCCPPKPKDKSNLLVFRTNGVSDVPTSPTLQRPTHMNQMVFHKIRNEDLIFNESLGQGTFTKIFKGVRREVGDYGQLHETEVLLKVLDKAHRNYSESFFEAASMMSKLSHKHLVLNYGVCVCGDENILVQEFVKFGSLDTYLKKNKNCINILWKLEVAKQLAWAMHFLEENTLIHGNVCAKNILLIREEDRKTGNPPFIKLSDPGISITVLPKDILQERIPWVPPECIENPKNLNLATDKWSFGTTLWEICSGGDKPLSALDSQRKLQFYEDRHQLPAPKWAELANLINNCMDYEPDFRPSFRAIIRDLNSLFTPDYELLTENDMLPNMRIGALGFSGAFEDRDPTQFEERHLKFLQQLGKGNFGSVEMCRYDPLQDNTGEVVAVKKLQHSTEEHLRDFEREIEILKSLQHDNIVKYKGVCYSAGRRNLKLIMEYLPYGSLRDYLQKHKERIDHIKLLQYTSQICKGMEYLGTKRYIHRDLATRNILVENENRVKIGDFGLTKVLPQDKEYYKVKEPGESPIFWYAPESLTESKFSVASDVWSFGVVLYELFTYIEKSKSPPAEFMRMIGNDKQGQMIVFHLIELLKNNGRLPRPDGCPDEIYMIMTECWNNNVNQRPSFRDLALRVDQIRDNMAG
Chain of Hck (P08631 whole entry, looked up): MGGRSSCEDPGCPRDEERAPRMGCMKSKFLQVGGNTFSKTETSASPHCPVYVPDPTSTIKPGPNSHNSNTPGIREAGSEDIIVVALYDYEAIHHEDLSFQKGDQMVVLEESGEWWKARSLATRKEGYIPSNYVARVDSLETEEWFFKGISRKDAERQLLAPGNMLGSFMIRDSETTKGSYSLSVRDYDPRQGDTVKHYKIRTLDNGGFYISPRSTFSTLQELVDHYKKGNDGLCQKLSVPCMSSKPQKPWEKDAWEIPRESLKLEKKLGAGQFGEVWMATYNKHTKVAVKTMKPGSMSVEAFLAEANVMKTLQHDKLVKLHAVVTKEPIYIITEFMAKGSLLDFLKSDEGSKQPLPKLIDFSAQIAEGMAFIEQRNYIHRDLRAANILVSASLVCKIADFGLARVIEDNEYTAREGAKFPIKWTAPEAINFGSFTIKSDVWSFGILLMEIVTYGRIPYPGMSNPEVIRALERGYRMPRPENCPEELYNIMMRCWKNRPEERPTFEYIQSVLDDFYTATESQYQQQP

Row | Sequence | SH2 binding enrichment (SHP2-C SH2) | SH2 binding enrichment (c-Src SH2) | SH2 binding enrichment (Grb2 SH2) | phosphorylation enrichment (Fyn) | phosphorylation enrichment (FGFR3) | phosphorylation enrichment (c-Abl (mouse)) | phosphorylation enrichment (EPHB1) | phosphorylation enrichment (Jak2) | phosphorylation enrichment (Hck) | phosphorylation enrichment (EPHB2) | phosphorylation enrichment (c-Src) | phosphorylation enrichment (Fer (mouse)) | phosphorylation enrichment (AncSZ) | phosphorylation enrichment (MERTK) | phosphorylation enrichment (Fes) | phosphorylation enrichment (FGFR1)
1 | CFSSEYHFVGG [CTSC_Y345_Y340C_YF] | 0.694 | 0.652 | 0.944 | 0.992 | 7.23 | 1.19 | 1.87 | 1.61 | 1.35 | 1.96 | 1.85 | 0.753 | 2.64 | 2.02 | 1.11 | 10.4
2 | DGMADCSDPSY [CDC5L_Y459_Y459C] | 0.629 | 0.615 | 1.22 | 0.492 | 0.754 | 0.755 | 0.607 | 1.06 | 0.543 | 0.595 | 0.425 | 0.52 | 1.12 | 0.412 | 1.18 | 0.465
3 | DSSIRYLQEIF [FGG_Y135_YF] | 0.693 | 0.473 | 0.856 | 0.559 | 0.604 | 0.545 | 0.576 | 0.755 | 0.527 | 0.5 | 0.497 | 0.417 | 0.868 | 0.542 | 0.924 | 0.632
4 | KGLKVYVNGTL [ADGRD1_Y183_E178K] | 0.703 | 0.549 | 1.32 | 0.364 | 0.677 | 0.584 | 0.524 | 0.923 | 0.441 | 0.576 | 0.406 | 0.452 | 1.11 | 0.431 | 1.16 | 0.421
5 | SHNKYYMLVAH [MFSD8_Y134_R139H] | 30 | 2.35 | 1.69 | 0.418 | 4.22 | 0.574 | 1.06 | 1.32 | 0.533 | 0.651 | 0.418 | 1.09 | 0.821 | 3.19 | 0.757 | 6.21
6 | AFEQQYSPIPR [NOX1_Y373] | 0.724 | 0.508 | 0.772 | 0.624 | 0.769 | 0.701 | 0.404 | 0.583 | 4.92 | 0.512 | 0.989 | 0.451 | 0.767 | 1.25 | 0.707 | 1.07
7 | EQYELYCEMGS [CBL_Y371] | 0.776 | 0.629 | 0.89 | 4.26 | 4.12 | 1.08 | 7.29 | 1.37 | 5.35 | 8.68 | 4.14 | 3.7 | 3.8 | 5.03 | 1.61 | 4.55
8 | NNPAYYVLEGV [INPPL1_Y987] | 1.02 | 3.65 | 0.803 | 1.65 | 13.1 | 0.711 | 0.764 | 4.89 | 1.11 | 0.69 | 1.63 | 0.525 | 1.15 | 9.04 | 0.997 | 15.9
9 | GMEIVYVFVKK [DNAI2_Y5_YF] | 0.787 | 0.556 | 0.941 | 0.554 | 0.862 | 1.22 | 0.709 | 1.59 | 0.673 | 0.654 | 0.627 | 0.58 | 1.4 | 0.481 | 1.44 | 0.587
10 | MKSIKYMDKEV [CCDC60_Y41_I46V] | 0.515 | 0.413 | 0.742 | 0.344 | 0.545 | 0.492 | 0.325 | 0.567 | 0.399 | 0.316 | 0.375 | 0.355 | 0.664 | 0.334 | 0.554 | 0.437

The next lines start with results.

Row | SH2 binding enrichment (SHP2-C SH2) | SH2 binding enrichment (c-Src SH2) | SH2 binding enrichment (Grb2 SH2) | Sequence | phosphorylation enrichment (Fyn) | phosphorylation enrichment (FGFR3) | phosphorylation enrichment (c-Abl (mouse)) | phosphorylation enrichment (EPHB1) | phosphorylation enrichment (Jak2) | phosphorylation enrichment (Hck) | phosphorylation enrichment (EPHB2) | phosphorylation enrichment (c-Src) | phosphorylation enrichment (Fer (mouse)) | phosphorylation enrichment (AncSZ) | phosphorylation enrichment (MERTK) | phosphorylation enrichment (Fes) | phosphorylation enrichment (FGFR1)
11 | 0.643 | 0.635 | 4.57 | DMQTLYVNTAA [SMCHD1_Y403] | 0.485 | 0.478 | 0.734 | 0.428 | 0.518 | 0.578 | 0.64 | 0.418 | 0.482 | 0.647 | 0.513 | 0.588 | 0.471
12 | 0.474 | 0.421 | 0.724 | PMFTKYGNGLL [RPGRIP1L_Y196_S199G] | 0.494 | 0.668 | 1.31 | 0.762 | 1.09 | 0.534 | 0.525 | 0.79 | 0.71 | 1.28 | 0.518 | 1.1 | 0.496
13 | 1.42 | 1.36 | 2.41 | YKWAVYCIIGR [NUP93_Y391_R388W] | 1.04 | 0.751 | 0.981 | 3.37 | 1.08 | 1.29 | 1.83 | 1.18 | 0.646 | 1.23 | 0.953 | 1.48 | 0.527
14 | 0.785 | 0.589 | 0.803 | TYEPNYGTVKR [RAPGEF6_Y1447_Q1452R] | 4.41 | 0.43 | 0.656 | 1.34 | 0.604 | 3.66 | 3.31 | 3.06 | 1.65 | 0.567 | 0.868 | 0.614 | 0.391
15 | 0.662 | 0.805 | 1.11 | ECIEFYELDKK [PMM2_Y145_R141C] | 0.501 | 0.776 | 0.825 | 0.579 | 0.977 | 0.572 | 0.596 | 0.999 | 0.589 | 1.22 | 0.485 | 1.13 | 0.569
